Test [1] deals with apc_human APC (UniProt P25054).
In test [2] the target is apc_human APC (UniProt P25054). This is another data set of the same source.

Sequence of apc_human APC (P25054 whole entry): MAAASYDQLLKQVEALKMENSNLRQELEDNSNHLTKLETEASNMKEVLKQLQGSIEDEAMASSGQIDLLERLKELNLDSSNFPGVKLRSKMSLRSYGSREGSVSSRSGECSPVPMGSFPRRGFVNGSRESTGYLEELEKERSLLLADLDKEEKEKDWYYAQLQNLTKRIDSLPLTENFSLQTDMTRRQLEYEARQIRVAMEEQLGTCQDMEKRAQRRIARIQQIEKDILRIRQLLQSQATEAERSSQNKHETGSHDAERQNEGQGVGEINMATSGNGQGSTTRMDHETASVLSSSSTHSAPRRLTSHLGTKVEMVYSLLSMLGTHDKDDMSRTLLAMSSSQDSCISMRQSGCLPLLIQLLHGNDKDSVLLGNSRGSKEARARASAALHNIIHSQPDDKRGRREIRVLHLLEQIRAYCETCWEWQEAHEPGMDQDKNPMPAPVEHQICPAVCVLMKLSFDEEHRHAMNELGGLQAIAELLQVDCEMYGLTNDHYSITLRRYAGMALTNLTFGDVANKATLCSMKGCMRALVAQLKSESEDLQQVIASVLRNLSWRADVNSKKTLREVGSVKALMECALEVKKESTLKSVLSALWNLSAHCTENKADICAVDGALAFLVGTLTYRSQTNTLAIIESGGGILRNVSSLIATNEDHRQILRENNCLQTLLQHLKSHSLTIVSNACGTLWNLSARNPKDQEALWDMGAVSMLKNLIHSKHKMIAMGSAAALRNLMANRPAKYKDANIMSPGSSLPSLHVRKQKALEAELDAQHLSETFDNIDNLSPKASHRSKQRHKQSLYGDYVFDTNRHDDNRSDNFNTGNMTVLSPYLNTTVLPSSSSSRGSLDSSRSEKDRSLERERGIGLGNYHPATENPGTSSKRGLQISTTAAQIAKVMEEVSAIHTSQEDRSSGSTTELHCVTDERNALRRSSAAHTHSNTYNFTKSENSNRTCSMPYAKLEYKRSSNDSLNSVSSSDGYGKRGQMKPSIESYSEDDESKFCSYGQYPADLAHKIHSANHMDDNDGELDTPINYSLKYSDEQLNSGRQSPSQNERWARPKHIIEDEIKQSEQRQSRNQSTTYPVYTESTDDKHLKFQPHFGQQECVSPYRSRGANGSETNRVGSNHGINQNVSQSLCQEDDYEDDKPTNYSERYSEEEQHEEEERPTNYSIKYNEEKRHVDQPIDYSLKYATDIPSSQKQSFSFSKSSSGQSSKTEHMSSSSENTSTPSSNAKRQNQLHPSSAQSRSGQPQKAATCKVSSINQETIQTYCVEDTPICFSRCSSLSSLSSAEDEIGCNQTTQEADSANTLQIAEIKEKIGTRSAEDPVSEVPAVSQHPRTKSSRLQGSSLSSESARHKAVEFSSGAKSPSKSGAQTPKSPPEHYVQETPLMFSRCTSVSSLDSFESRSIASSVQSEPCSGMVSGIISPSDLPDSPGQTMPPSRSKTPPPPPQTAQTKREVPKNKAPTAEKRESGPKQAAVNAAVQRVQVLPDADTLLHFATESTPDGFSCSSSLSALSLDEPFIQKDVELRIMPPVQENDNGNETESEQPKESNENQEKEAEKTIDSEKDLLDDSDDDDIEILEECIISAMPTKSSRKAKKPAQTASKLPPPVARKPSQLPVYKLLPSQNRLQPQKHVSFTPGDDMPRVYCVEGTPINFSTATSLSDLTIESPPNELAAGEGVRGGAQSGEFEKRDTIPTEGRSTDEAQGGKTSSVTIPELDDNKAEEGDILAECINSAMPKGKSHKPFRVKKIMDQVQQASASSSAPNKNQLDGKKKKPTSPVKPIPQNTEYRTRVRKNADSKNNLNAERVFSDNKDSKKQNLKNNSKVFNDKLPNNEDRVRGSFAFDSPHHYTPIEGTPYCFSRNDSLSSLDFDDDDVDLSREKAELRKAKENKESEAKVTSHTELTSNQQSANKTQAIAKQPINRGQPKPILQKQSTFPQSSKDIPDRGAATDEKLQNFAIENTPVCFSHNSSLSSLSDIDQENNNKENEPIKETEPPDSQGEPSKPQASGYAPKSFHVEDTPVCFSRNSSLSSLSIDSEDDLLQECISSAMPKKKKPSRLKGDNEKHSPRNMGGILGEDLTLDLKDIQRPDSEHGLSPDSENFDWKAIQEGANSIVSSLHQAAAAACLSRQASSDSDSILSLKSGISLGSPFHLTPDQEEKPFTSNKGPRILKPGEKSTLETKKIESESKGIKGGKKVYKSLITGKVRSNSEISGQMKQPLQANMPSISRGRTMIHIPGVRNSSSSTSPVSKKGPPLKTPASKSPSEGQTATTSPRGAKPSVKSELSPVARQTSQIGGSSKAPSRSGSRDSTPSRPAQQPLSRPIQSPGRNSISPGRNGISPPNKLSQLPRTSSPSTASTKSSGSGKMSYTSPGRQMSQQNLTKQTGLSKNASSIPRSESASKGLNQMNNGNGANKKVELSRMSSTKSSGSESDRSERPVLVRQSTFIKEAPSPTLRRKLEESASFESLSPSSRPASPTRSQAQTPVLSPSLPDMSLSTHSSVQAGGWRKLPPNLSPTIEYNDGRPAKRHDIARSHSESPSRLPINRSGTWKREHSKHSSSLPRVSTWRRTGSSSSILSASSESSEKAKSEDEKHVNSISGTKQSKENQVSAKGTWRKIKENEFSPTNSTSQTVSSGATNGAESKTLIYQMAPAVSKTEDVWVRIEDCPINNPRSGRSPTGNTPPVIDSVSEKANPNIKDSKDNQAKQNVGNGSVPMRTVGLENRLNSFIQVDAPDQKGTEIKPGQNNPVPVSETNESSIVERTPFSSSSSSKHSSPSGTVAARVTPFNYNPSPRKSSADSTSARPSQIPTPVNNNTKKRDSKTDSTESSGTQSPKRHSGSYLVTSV
Sequence of Cell division control protein 42 homolog (Homo sapiens), P60953 T17N (P60953 whole entry T17N): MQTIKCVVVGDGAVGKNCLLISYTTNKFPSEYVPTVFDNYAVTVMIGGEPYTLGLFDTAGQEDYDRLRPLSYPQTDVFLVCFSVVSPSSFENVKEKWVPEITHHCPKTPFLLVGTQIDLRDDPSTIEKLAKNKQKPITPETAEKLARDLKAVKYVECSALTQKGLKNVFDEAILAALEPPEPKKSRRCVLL

For the substance “Cell division control protein 42 homolog (Homo sapiens), P60953 T17N”, the “effect of a mutation on the interaction” value in test [1] is recorded as “disrupting interaction strength”; in test [2], “decreasing interaction strength”.

The record behind these values is IntAct's records for PubMed 21311754.
